One data set relates to CC(=O)SCC[N+](C)(C)C. The data set can be described thus: cells, lysate or membranes. The following applies: pH 7.0.
Data set [1] concerns the target T1, rPpAChE1 (Phlebotomus papatasi, UniProt M1F887). The data set can be described thus: biochemical. Also noted: gene AChE; PpAChE1 cDNA in pBlueBac4.5/V5-His, baculovirus expression in Sf21 cells, expression supernatant; species or system Sf21 (expression host).
Data set [2] addresses T1, rPpAChE1. Nature of the data set: biochemical. Also noted: gene AChE.

The record followed here is article PMC11834182 (Parasites & Vectors, 2025).

Like-named read-outs stand apart in the source and are kept apart here.

In general, Km refers to the substrate concentration at which the rate is half of its maximum. In general, Vmax refers to the rate approached at saturating substrate. Usually IC50 stands for the point on the concentration scale where inhibition reaches its midpoint. Higher therefore signals weaker potency in that assay.

With rPpAChE1 (Phlebotomus papatasi), in the data set on CC(=O)SCC[N+](C)(C)C, the Michaelis constant (Km) amounted to 123 ± 25 µM and the Vmax was found to be 74 ± 6.7 µmol/min/mg.
In turn, `CCOC(=O)CC(SP(=O)(OC)OC)C(=O)OCC` (stereo not shown) [Maloxon] gave an IC50 on rPpAChE1 [1] of 44 nM.
`c1ccc2c(NCCCCCCCNc3c4c(nc5ccccc35)CCCC4)c3c(nc2c1)CCCC3` [bis(7)-tacrine] gave an IC50 at rPpAChE1 [2] of 4 nM.
